The series has as its system JM109(DE3). In words: Studies of cell viability in JM109(DE3) strains bearing pX28 or pX284 after IPTG induction. The format is cell-based, E.coli. Particulars: WF8R expressed as P10 fusion protein from pX28 / pX284; effects more pronounced in the pX28 harboring strain. The text has this: The pX28 and pX284 were transformed into JM109(DE3). The proteins produced in either the JM109(DE3)[pX28] or in the JM109(DE3)[pX284] after induction by IPTG in mid- or late-logarithmic growth phase, have been analyzed by sodium dodecyl sulfate (SDS)-polyacrylamide gel electrophoresis (SDS-PAGE). […] Studies of cell viability in these strains have shown that both strains are adversely affected with respect to growth and stability of the plasmid (these effects were more pronounced in the pX28 harboring strain). […] To avert this problem the applicants decided to protect the fusion protein from intracellular degradation, as well as to protect the cells from the toxicity of WF8R, by adding to the fusion a C-terminal end derived from E.coli β-galactosidase.

B1: WF8R: synthetic antifreeze peptide of 98 amino acids with eight eleven-amino-acid repeats, modeled on winter flounder AFP, expressed in E. coli (protein)
chain: MSTASDAAAAAAATAATAAAAAAATAATAAAAAAATAATAAAAAAATAATAAAAAAATAATAAAAAAATAATAAKAAALTAANAAAAAAATAAAAARG
Turning to B1, the “toxicity to the host cells (growth and stability of the plasmid adversely affected)” value is listed as “toxic to the cells”.

(Values after patent publication US5925540A, “Synthetic antifreeze peptide and synthetic gene coding for its production” (Virginia Tech Intellectual Properties, Inc., priority 1991, dated 1999).)
